Columns and labels:
Type in all cases: cell-based, human
[1] = tested on: wild-type and variant SNAP-GIPR; test: Surface SNAP-GIPR expression (SNAP-tag labelling) in AD293 cells; conditions: for AD293 Surface: Fig S3E, mean; for Surface SNAP-GIPR expression: sheet Fig 1C;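 for all read-outs here: scaled to the experimental average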
In short: (§1)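 Surface GIPR is quantified from wide-field images after labelling intact transfected cells with a membrane-impermeant SNAP probe at 500 nM for 10 min at room temperature. Specific signal, corrected for nontransfected cells, is normalized to the experiment-wide average or to wild-type.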

[2] = tested on: wild-type and variant SNAP-GIPR; test: Surface SNAP-GIPR expression (SNAP-tag labelling) in INS-1 cells; conditions: Fig 4G; Mean
In short: as §1

[3] = tested on: wild-type and variant SNAP-GIPR; test: Single-concentration GIP cAMP response by HTRF in AD293 cells; conditions: Fig S3F, HTRF, mean;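 note: ratio to experiment-wide average response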
Experimental: (§2) All variants were tested in parallel on each occasion to control for transfection efficiency differences between experiments.

[4] = tested on: wild-type and variant SNAP-GIPR; test: Single-concentration GIP cAMP response by HTRF in INS-1 cells; conditions: Fig S3E, mean
Experimental: as §2

[5] = tested on: wild-type and variant SNAP-GIPR; test: cADDis cAMP imaging in AD293 cells, ensemble, expression-matched and per decile; conditions: Fig S3F, cADDis, mean
In short: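 Per-cell cAMP from cADDis intensity over time, with cells excluded by IBMX/FSK response criteria. Expression matching used wild-type surface-SNAP deciles, top and bottom trimmed, mean of decile means. Ensemble values ignore deciles. Wide-field imaging at 37 °C in KRBH with 6 mM glucose, 0.1% BSA, 24 h post-transfection in AD293.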

[6] = tested on: wild-type and variant SNAP-GIPR; test: Constitutive and agonist-mediated internalization, reversible SNAP-tag labelling, AD293 cells; parameters: key to Internalisation, Vehicle / Internalisation, +GIP / Internalisation, GIP-only: % internalization: residual fluorescence after Mesna vs pre-Mesna; Surface expression: unit not given here; conditions: Mean
In short: (§3)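 % internalization = residual specific fluorescence after Mesna / pre-Mesna value. Imaging in TNE buffer pH 8.6; second image 10 min post-Mesna.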

[7] = tested on: wild-type and variant SNAP-GIPR; test: Constitutive and agonist-mediated internalization, reversible SNAP-tag labelling, INS-1 cells; parameters: key to Internalisation, GIP-only / Internalisation, Vehicle / Internalisation, +GIP: % internalization: residual fluorescence after Mesna vs pre-Mesna; conditions: Mean
In short: as §3

B1: E252D (protein)
chain: RAETGSKGQTAGELYQRWERYRRECQETLAAAEPPSGLACNGSFDMYVCWDYAAPNATARASCPWYLPWHHHVAAGFVLRQCGSDGQWGLWRDHTQCENPEKNEAFLDQRLILERLQVMYTVGYSLSLATLLLALLILSLFRRLHCTRNYIHINLFTSFMLRAAAILSRDRLLPRPGPYLGDQALALWNQALAACRTAQIVTQYCVGANYTWLLVEGVYLHSLLVLVGGSDEGHFRYYLLLGWGAPALFVIPWVIVRYLYENTQCWERNEVKAIWWIIRTPILMTILINFLIFIRILGILLSKLRTRQMRCRDYRLRLARSTLTLVPLLGVHEVVFAPVTEEQARGALRFAKLGFEIFLSSFQGFLVSVLYCFINKEVQSEIRRGWHHCRLRRSLGEEQRQLPERAFRALPSGSGPGEVPTSRGLSSGTLPGPGNEASRELESYC
With B1 the “AD293 Surface” value ([1]; column repeated, paired with cAMP 100 nM) was 1.407, the “AD293 Surface” value ([1]; paired with cAMP 100 pM) was 1.407 and the “Surface SNAP-GIPR expression” value ([1]; replicate 1) was 1.329. The “Surface SNAP-GIPR expression” value ([1]; replicate 2) was 1.136, the “Surface SNAP-GIPR expression” value ([1]; replicate 3) was 2.323 and the “Surface SNAP-GIPR expression” value ([1]; replicate 4) was 1.309. The “Surface SNAP-GIPR expression” value ([1]; replicate 5) was 1.389, the “Surface SNAP-GIPR expression” value ([1]; replicate 6) was 1.509 and the “Surface SNAP-GIPR expression” value ([1]; replicate 7) was 1.009. The “Surface SNAP-GIPR expression” value ([1]; replicate 8) was 1.58, the “Surface SNAP-GIPR expression” value ([1]; replicate 9) was 1.305 and the “Surface SNAP-GIPR expression” value ([1]; replicate 10) was 1.452. For the same molecule, the “Surface SNAP-GIPR expression” value ([1]; replicate 11) was 1.297, the “Surface SNAP-GIPR expression” value ([1]; replicate 12) was 1.294 and the “Surface SNAP-GIPR expression” value ([1]; replicate 13) was 1.499. The “Surface SNAP-GIPR expression” value ([1]; replicate 14) was 1.714, the “Surface SNAP-GIPR expression” value ([1]; replicate 15) was 1.276 and the “Surface SNAP-GIPR expression” value ([1]; replicate 16) was 1.31. For the same molecule, the “Surface SNAP-GIPR expression” value ([1]; replicate 17) was 1.201, the “Surface SNAP-GIPR expression” value ([1]; replicate 18) was 1.327 and the “Surface SNAP-GIPR expression” value ([1]; replicate 19) was 1.07. For the same molecule, the “Surface SNAP-GIPR expression” value ([1]; replicate 20) was 1.361, the “Surface SNAP-GIPR expression” value ([1]; replicate 21) was 1.327 and the “Surface SNAP-GIPR expression” value ([1]; replicate 22) was 1.295. The “Surface SNAP-GIPR expression” value ([1]; replicate 23) was 1.346, the “Surface SNAP-GIPR expression” value ([1]; replicate 24) was 1.279 and the “Surface SNAP-GIPR expression” value ([1]; replicate 25) was 1.414. For the same molecule, the “Surface SNAP-GIPR expression” value ([1]; replicate 26) was 1.49, the “Surface SNAP-GIPR expression” value ([1]; replicate 27) was 1.461 and the “Surface SNAP-GIPR expression” value ([1]; replicate 28) was 1.564. The “Surface SNAP-GIPR expression” value ([1]; replicate 29) was 1.396, the “Surface SNAP-GIPR expression” value ([1]; replicate 30) was 1.388 and the “Surface SNAP-GIPR expression” value ([1]; replicate 31) was 2.074. For the same molecule, the “Surface SNAP-GIPR expression” value ([1]; replicate 32) was 1.301, the “Surface SNAP-GIPR expression” value ([1]; replicate 33) was 1.332 and the “Surface SNAP-GIPR expression” value ([1]; replicate 34) was 1.623. For the same molecule, the “Surface SNAP-GIPR expression” value ([1]; replicate 35) was 1.576, the “Surface SNAP-GIPR expression” value ([1]; replicate 36) was 1.688 and the “Surface SNAP-GIPR expression” value ([1]; replicate 37) was 1.181. For the same molecule, the “Surface SNAP-GIPR expression” value ([1]; replicate 38) was 1.286, the “Surface SNAP-GIPR expression” value ([1]; replicate 39) was 1.291 and the “Surface SNAP-GIPR expression” value ([1]; replicate 40) was 1.349. For the same molecule, the “Surface SNAP-GIPR expression” value ([1]; replicate 41) was 1.333, the Surface expression [2] was 1.379 and the “AD293 100 pM HTRF” value ([3]; AD293, 100 pM) was 2.258. The “AD293 100 nM HTRF” value ([3]; AD293, 100 nM) was 1.787, the “INS-1 cAMP (100 nM)” value [4] was 1.435 and the “AD293 100 pM cADDis” value ([5]; AD293, 100 pM) was 35.9603. For the same molecule, the “AD293 100 nM cADDis” value ([5]; AD293, 100 nM) was 38.59, the “+GIP internalisation (100 nM)” value ([6]; Fig 4E, GIP 100 nM) was 0.7833 and the “GIP-specific internalisation (100 nM)” value ([6]; Fig 4E, GIP 100 nM) was 0.2173. For the same molecule, the “Constitutive internalisation (100 nM)” value ([6]; Fig 4E) was 0.566, the Surface expression ([6]; Fig 4E) was 1.422 and the “Internalisation, +GIP” value ([6]; Fig S4C, AD293) was 55.2271. For the same molecule, the “Internalisation, GIP-only” value ([6]; Fig S4C, AD293) was 15.2317, the “Internalisation, Vehicle” value ([6]; Fig S4C, AD293) was 39.9954 and the “+GIP internalisation (100 nM)” value ([7]; Fig 4G, GIP 100 nM) was 0.6632. For the same molecule, the “GIP-specific internalisation (100 nM)” value ([7]; Fig 4G, GIP 100 nM) was 0.1797, the “Constitutive internalisation (100 nM)” value ([7]; Fig 4G) was 0.4835 and the “Internalisation, +GIP” value ([7]; Fig S4C, INS-1) was 49.4067. For the same molecule, the “Internalisation, GIP-only” value ([7]; Fig S4C, INS-1) was 13.4967 and the “Internalisation, Vehicle” value ([7]; Fig S4C, INS-1) was 35.91.

Reference: article PMC13544220, “Glycemic and bodyweight effects of GIPR coding variation reflect differences in surface expression and intrinsic functional impairment” (Science Advances, 2026)
